PMC12551957, “Human monoclonal antibodies to HPV16 show evidence for common developmental pathways and public epitopes” (PLOS Pathogens, 2025)

B1: D24.1M01 with the germline CDRL2 (YGN) (antibody, V domains shown)
VH: QVTLRESGPALVKPTQTLTLTCTISGLSLTTSGVCVSWIRQPPGKALEWLALIDWDDDKYYSTSLRTRLTISKDISKNQVVLTMTNMDPVDTATFFCARTRCTSNWGYYFDSWGRGTRVTVSS
VL: QSVLTQPPSVSGAPGQRVTISCTGSASNIGAGYDVHWYQQVPGAAPKLLIYGNSNRPSGVPDRISGSKSGTSASLAISGLQAEDEADYYCQSYDDSLRGWVFGGGTKLTVL

Legend:
[1] = target: soluble HPV16 L1 capsomer (human papillomavirus type 16 (HPV16)); assay: cryo-EM structure
[2] = target: HPV16 L1 (as in the HPV16L1 binding assays and on pseudovirus psV16) (Human papillomavirus type 16; L1 of …, UniProt J3SRV0); assay: cell-based or functional assay
Chain of HPV16 L1 (as in the HPV16L1 binding assays and on pseudovirus psV16) (P03101 whole entry): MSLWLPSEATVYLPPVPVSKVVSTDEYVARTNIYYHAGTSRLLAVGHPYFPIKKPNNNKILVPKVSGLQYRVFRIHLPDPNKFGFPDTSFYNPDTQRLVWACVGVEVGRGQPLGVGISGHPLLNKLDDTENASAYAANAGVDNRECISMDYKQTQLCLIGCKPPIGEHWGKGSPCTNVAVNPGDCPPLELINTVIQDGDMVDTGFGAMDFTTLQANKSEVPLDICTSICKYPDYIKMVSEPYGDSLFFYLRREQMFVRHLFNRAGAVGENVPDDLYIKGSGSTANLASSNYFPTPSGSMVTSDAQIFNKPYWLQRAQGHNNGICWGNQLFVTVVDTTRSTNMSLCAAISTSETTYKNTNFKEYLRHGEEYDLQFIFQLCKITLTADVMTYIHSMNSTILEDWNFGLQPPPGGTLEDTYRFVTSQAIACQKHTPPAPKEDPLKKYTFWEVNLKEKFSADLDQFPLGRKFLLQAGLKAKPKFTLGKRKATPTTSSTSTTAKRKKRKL

Row | Molecule | stoichiometry N [1] | psV16 neutralization, fold increase of IC50 against the mature antibody [2]
1 | soluble HPV16 L1 capsomer (complex) | 5 | 
2 | B1 |  | 5.3 fold
